According to paper PMC9478406, “AMPK-related protein kinase ARK5 regulates subcellular localization of RNA-binding protein hnRNP A1 during hypertonic stress” (The Journal of Biological Chemistry, 2022):

Molecular target: T1, GST-tagged ARK5 wild type (AMPK-related protein kinase 5) (human, UniProt O60285 1-661)
T1 construct: ARK5 (aka NUAK1), UniProt ID O60285; Printed both as GST-ARK5 and ARK5-GST, so the end of the tag is not clear; also called NUAK1; GST-ARK5; source: U2OS, transfected, in lysate; U2OS, transfected, purified (Pierce GST spin purification kit)
T1 sequence (looked up): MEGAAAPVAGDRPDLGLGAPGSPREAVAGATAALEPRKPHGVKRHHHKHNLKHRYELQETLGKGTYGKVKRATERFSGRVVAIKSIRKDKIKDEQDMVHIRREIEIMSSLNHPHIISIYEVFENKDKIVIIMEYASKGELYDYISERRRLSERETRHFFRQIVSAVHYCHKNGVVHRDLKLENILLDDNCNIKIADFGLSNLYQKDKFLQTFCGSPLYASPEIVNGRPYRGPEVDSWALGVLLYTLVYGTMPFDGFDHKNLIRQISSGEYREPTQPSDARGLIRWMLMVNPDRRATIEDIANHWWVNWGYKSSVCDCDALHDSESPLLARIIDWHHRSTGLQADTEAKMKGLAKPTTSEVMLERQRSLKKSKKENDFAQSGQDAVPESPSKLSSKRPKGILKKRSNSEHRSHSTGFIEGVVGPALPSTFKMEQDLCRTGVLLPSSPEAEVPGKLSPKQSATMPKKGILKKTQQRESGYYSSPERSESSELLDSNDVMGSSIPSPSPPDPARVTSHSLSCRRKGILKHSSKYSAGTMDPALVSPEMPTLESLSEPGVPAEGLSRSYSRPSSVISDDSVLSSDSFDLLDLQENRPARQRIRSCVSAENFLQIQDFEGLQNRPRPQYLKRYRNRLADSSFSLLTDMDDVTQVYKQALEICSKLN
Experiment: co-IP; in vivo co-IP: U2OS cells cotransfected with GST-ARK5 (WT or KD) and FLAG-hnRNP A1 (WT, fragments or mutants); lysate in co-IP buffer (25 mM Tris-HCl pH 7.4, 150 mM NaCl, 0.5% Triton X-100), GSH Sepharose beads overnight at 4 °C, immunoblotting
Details: partners not purified

binding result: binds
B1: FLAG-tagged hnRNP A1 wild type (heterogeneous nuclear ribonucleoprotein A1) (natural protein, human, UniProt P09651-2 1-320, looked up)
chain: MSKSESPKEPEQLRKLFIGGLSFETTDESLRSHFEQWGTLTDCVVMRDPNTKRSRGFGFVTYATVEEVDAAMNARPHKVDGRVVEPKRAVSREDSQRPGAHLTVKKIFVGGIKEDTEEHHLRDYFEQYGKIEVIEIMTDRGSGKKRGFAFVTFDDHDSVDKIVIQKYHTVNGHNCEVRKALSKQEMASASSSQRGRSGSGNFGGGRGGGFGGNDNFGRGGNFSGRGGFGGSRGGGGYGGSGDGYNGFGNDGSNFGGGGSYNDFGNYNNQSSNFGPMKGGNFGGRSSGPYGGGGQYFAKPRNQGGYGGSSSSSSYGSGRRF
notes: hnRNP A1, full length, printed length 320 aa (residues 1-320); The printed residue numbers (1-320) fit the 320-residue isoform; also called FLAG-hnRNP A1 WT; A1-WT; source: U2OS, transfected, in lysate; U2OS, transfected, purified separately
